The target in the assay is African cassava mosaic virus (ACMV) capsid protein expressed in fission yeast (African cassava mosaic virus (ACMV-[Nigeria-Ogo])). The experiment in a line: SDS-PAGE with Western blot.

Substance “African cassava mosaic virus (ACMV) capsid protein expressed in fission yeast (natural protein)” gave a stoichiometry N of 2.
